# According to publication PMC9680306:
# What was measured:
# Experiment in all cases: co-IP; anti-ARMS (mouse, MA1-90667) coupled MagPlex microspheres incubated overnight with cleared RIPA lysates of transfected HEK293 cells; bound TRPV1, ARMS or AKAP79 detected with rabbit antibodies and anti-rabbit-PE on FLEXMAP 3D (MFI); interaction ratio = TRPV1 MFI divided by ARMS MFI; cells untreated or treated with forskolin 50 uM + IBMX 100 uM, H89 10 uM or BPKDi 1 uM
# [1] = target: ARMS_(T903) (ARMS mutant keeping only the PKA site T903) (rat) (UniProt Q9EQG6)
# [2] = target: ARMS_(S1251/52) (ARMS mutant keeping only the PKA site S1251/52) (rat) (UniProt Q9EQG6)
# [3] = target: ARMS0 (ARMS with all potential PKA sites mutated to alanine) (rat) (UniProt Q9EQG6)
# [4] = target: ARMS_(S1439/40) (ARMS mutant keeping only the PKA site S1439/40) (rat) (UniProt Q9EQG6)
# [5] = target: ARMS_(S1526/27) (ARMS mutant keeping only the PKA site S1526/27) (rat) (UniProt Q9EQG6)
# [6] = target: ARMS_(S882) (ARMS mutant keeping only the PKA site S882) (rat) (UniProt Q9EQG6)
# [7] = target: Ankyrin-rich membrane spanning protein (ARMS), wild type (rat) (UniProt Q9EQG6)
substance,measurement,setting,value
transient receptor potential vanilloid 1 (TRPV1)-YFP (from UniProt O35433 1-838),"TRPV1 MFI / ARMS MFI in the ARMS precipitate, cells treated with BPKDi",[1],4%
same,"TRPV1 MFI / ARMS MFI in the ARMS precipitate, cells treated with H89",[1],7%
same,"TRPV1 MFI / ARMS MFI in the ARMS precipitate, cells treated with forskolin + IBMX",[1],9%
same,"TRPV1 MFI / ARMS MFI in the ARMS precipitate, untreated cells",[1],12%
same,"TRPV1 MFI / ARMS MFI in the ARMS precipitate, cells treated with BPKDi",[2],5%
same,"TRPV1 MFI / ARMS MFI in the ARMS precipitate, cells treated with H89",[2],6%
same,"TRPV1 MFI / ARMS MFI in the ARMS precipitate, cells treated with forskolin + IBMX",[2],18%
same,"TRPV1 MFI / ARMS MFI in the ARMS precipitate, untreated cells",[2],15%
same,"TRPV1 MFI / ARMS MFI in the ARMS precipitate, cells treated with BPKDi",[3],2%
same,"TRPV1 MFI / ARMS MFI in the ARMS precipitate, cells treated with H89",[3],4%
same,"TRPV1 MFI / ARMS MFI in the ARMS precipitate, cells treated with forskolin + IBMX",[3],6%
same,"TRPV1 MFI / ARMS MFI in the ARMS precipitate, untreated cells",[3],5%
same,"TRPV1 MFI / ARMS MFI in the ARMS precipitate, cells treated with BPKDi",[4],3%
same,"TRPV1 MFI / ARMS MFI in the ARMS precipitate, cells treated with H89",[4],4%
same,"TRPV1 MFI / ARMS MFI in the ARMS precipitate, cells treated with forskolin + IBMX",[4],6%
same,"TRPV1 MFI / ARMS MFI in the ARMS precipitate, untreated cells",[4],7%
same,"TRPV1 MFI / ARMS MFI in the ARMS precipitate, cells treated with BPKDi",[5],25%
same,"TRPV1 MFI / ARMS MFI in the ARMS precipitate, cells treated with H89",[5],36%
same,"TRPV1 MFI / ARMS MFI in the ARMS precipitate, cells treated with forskolin + IBMX",[5],63%
same,"TRPV1 MFI / ARMS MFI in the ARMS precipitate, untreated cells",[5],60%
same,"TRPV1 MFI / ARMS MFI in the ARMS precipitate, cells treated with BPKDi",[6],4%
same,"TRPV1 MFI / ARMS MFI in the ARMS precipitate, cells treated with H89",[6],5%
same,"TRPV1 MFI / ARMS MFI in the ARMS precipitate, cells treated with forskolin + IBMX",[6],7%
same,"TRPV1 MFI / ARMS MFI in the ARMS precipitate, untreated cells",[6],10%
same,"TRPV1 MFI / ARMS MFI in the ARMS precipitate, cells treated with BPKDi",[7],3%
same,"TRPV1 MFI / ARMS MFI in the ARMS precipitate, cells treated with H89",[7],4%
same,"TRPV1 MFI / ARMS MFI in the ARMS precipitate, cells treated with forskolin + IBMX",[7],9%
same,"TRPV1 MFI / ARMS MFI in the ARMS precipitate, untreated cells",[7],9%
